{"source": "the supplement of paper PMC9112550", "about": "“Optimization of the antimicrobial peptide Bac7 by deep mutational scanning” (BMC Biology, 2022);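 further: peptides expressed intracellularly from a pBAD plasmid library in pooled LB shake-flask culture, induced with 0.3% L-arabinose, DNA abundance read by NGS, three biological replicates, DESeq2 with apeglm shrinkage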"}
{"tested_on": "Escherichia coli TOP10", "assay": "shrunken log2 fold change of peptide-encoding DNA abundance (4.5 h post-induction vs induction); higher = less antimicrobial activity (less host growth inhibition)", "conditions": "time post-induction: 4.5 h; library: site-saturation at positions 5, 18, 19, 20"}
{"sequence": "RRIRVRPPRLPRPRPRPNEKPRP", "shrunken log2 fold change": -0.0575}
{"sequence": "RRIRKRPPRLPRPRPRPMIFPRP", "shrunken log2 fold change": -0.132}
{"sequence": "RRIRERPPRLPRPRPRPSDQPRP", "shrunken log2 fold change": -1.5}
{"sequence": "RRIRLRPPRLPRPRPRPRFSPRP", "shrunken log2 fold change": 0.0406}
{"sequence": "RRIRLRPPRLPRPRPRPMGHPRP", "shrunken log2 fold change": -0.0276}
{"sequence": "RRIRRRPPRLPRPRPRPCFFPRP", "shrunken log2 fold change": 0.0648}
{"sequence": "RRIRMRPPRLPRPRPRPKISPRP", "shrunken log2 fold change": 0.0938}
{"sequence": "RRIRMRPPRLPRPRPRPLFQPRP", "shrunken log2 fold change": -0.279}
{"sequence": "RRIRWRPPRLPRPRPRPYRTPRP", "shrunken log2 fold change": 0.00941}
{"sequence": "RRIRWRPPRLPRPRPRPNFLPRP", "shrunken log2 fold change": -0.308}
{"sequence": "RRIRTRPPRLPRPRPRPIIGPRP", "shrunken log2 fold change": 0.0211}
{"sequence": "RRIRDRPPRLPRPRPRPKQHPRP", "shrunken log2 fold change": 0.0788}
{"sequence": "RRIRHRPPRLPRPRPRPNDVPRP", "shrunken log2 fold change": -0.0131}
{"sequence": "RRIRRRPPRLPRPRPRPEGIPRP", "shrunken log2 fold change": 0.252}
{"sequence": "RRIRGRPPRLPRPRPRPIPFPRP", "shrunken log2 fold change": 0.266}
{"sequence": "RRIRLRPPRLPRPRPRPPFEPRP", "shrunken log2 fold change": 0.182}
{"sequence": "RRIRERPPRLPRPRPRPTAKPRP", "shrunken log2 fold change": 0.0302}
{"sequence": "RRIRERPPRLPRPRPRPTALPRP", "shrunken log2 fold change": -0.415}
{"sequence": "RRIRRRPPRLPRPRPRPFNPPRP", "shrunken log2 fold change": -0.277}
{"sequence": "RRIRSRPPRLPRPRPRPPMQPRP", "shrunken log2 fold change": 0.268}
{"sequence": "RRIRQRPPRLPRPRPRPVKEPRP", "shrunken log2 fold change": -0.0231}
{"sequence": "RRIRARPPRLPRPRPRPMVFPRP", "shrunken log2 fold change": 0.508}
{"sequence": "RRIRGRPPRLPRPRPRPKIFPRP", "shrunken log2 fold change": 0.288}
{"sequence": "RRIRWRPPRLPRPRPRPYSTPRP", "shrunken log2 fold change": -0.225}
{"sequence": "RRIRGRPPRLPRPRPRPQLMPRP", "shrunken log2 fold change": 0.509}
{"sequence": "RRIRRRPPRLPRPRPRPGCGPRP", "shrunken log2 fold change": 0.657}
{"sequence": "RRIRCRPPRLPRPRPRPSVWPRP", "shrunken log2 fold change": 0.238}
{"sequence": "RRIRKRPPRLPRPRPRPQYNPRP", "shrunken log2 fold change": -0.67}
{"sequence": "RRIRIRPPRLPRPRPRPMMVPRP", "shrunken log2 fold change": -0.00145}
{"sequence": "RRIRKRPPRLPRPRPRPMSAPRP", "shrunken log2 fold change": 0.0584}
{"sequence": "RRIRMRPPRLPRPRPRPNLNPRP", "shrunken log2 fold change": -0.0299}
{"sequence": "RRIRNRPPRLPRPRPRPDVIPRP", "shrunken log2 fold change": -0.135}
{"sequence": "RRIRTRPPRLPRPRPRPSWLPRP", "shrunken log2 fold change": 0.11}
{"sequence": "RRIRMRPPRLPRPRPRPHTRPRP", "shrunken log2 fold change": 0.387}
{"sequence": "RRIRKRPPRLPRPRPRPSNHPRP", "shrunken log2 fold change": -0.347}
{"sequence": "RRIRRRPPRLPRPRPRPPFNPRP", "shrunken log2 fold change": 0.333}
{"sequence": "RRIRVRPPRLPRPRPRPQYEPRP", "shrunken log2 fold change": -0.174}
{"sequence": "RRIRNRPPRLPRPRPRPYSNPRP", "shrunken log2 fold change": -0.155}
{"sequence": "RRIRQRPPRLPRPRPRPYVQPRP", "shrunken log2 fold change": -0.00748}
{"sequence": "RRIRMRPPRLPRPRPRPREWPRP", "shrunken log2 fold change": -0.0018}
{"sequence": "RRIRLRPPRLPRPRPRPFWKPRP", "shrunken log2 fold change": 0.379}
{"sequence": "RRIRMRPPRLPRPRPRPSLFPRP", "shrunken log2 fold change": 0.136}
{"sequence": "RRIRQRPPRLPRPRPRPMPEPRP", "shrunken log2 fold change": -0.237}
{"sequence": "RRIRCRPPRLPRPRPRPLEYPRP", "shrunken log2 fold change": -0.0414}
{"sequence": "RRIRQRPPRLPRPRPRPADNPRP", "shrunken log2 fold change": -0.536}
{"sequence": "RRIRLRPPRLPRPRPRPIDIPRP", "shrunken log2 fold change": 0.00368}
{"sequence": "RRIRKRPPRLPRPRPRPSNIPRP", "shrunken log2 fold change": -0.306}
{"sequence": "RRIRCRPPRLPRPRPRPLKGPRP", "shrunken log2 fold change": -0.204}
{"sequence": "RRIRDRPPRLPRPRPRPSRCPRP", "shrunken log2 fold change": 0.346}
{"sequence": "RRIRNRPPRLPRPRPRPRIGPRP", "shrunken log2 fold change": 0.0705}
{"sequence": "RRIRDRPPRLPRPRPRPIDLPRP", "shrunken log2 fold change": -0.0817}
{"sequence": "RRIRMRPPRLPRPRPRPWGHPRP", "shrunken log2 fold change": 0.0533}
{"sequence": "RRIRQRPPRLPRPRPRPVWAPRP", "shrunken log2 fold change": -0.468}
{"sequence": "RRIRGRPPRLPRPRPRPEFAPRP", "shrunken log2 fold change": 1.22}
{"sequence": "RRIRLRPPRLPRPRPRPSKGPRP", "shrunken log2 fold change": -0.123}
{"sequence": "RRIRHRPPRLPRPRPRPKTRPRP", "shrunken log2 fold change": -0.0214}
{"sequence": "RRIRCRPPRLPRPRPRPFNSPRP", "shrunken log2 fold change": 0.101}
{"sequence": "RRIRKRPPRLPRPRPRPCPGPRP", "shrunken log2 fold change": -0.251}
{"sequence": "RRIRWRPPRLPRPRPRPDIWPRP", "shrunken log2 fold change": 0.642}
{"sequence": "RRIRDRPPRLPRPRPRPATDPRP", "shrunken log2 fold change": 0.0254}
{"sequence": "RRIRLRPPRLPRPRPRPMDHPRP", "shrunken log2 fold change": -0.00264}
{"sequence": "RRIRERPPRLPRPRPRPTPIPRP", "shrunken log2 fold change": 0.244}
{"sequence": "RRIRARPPRLPRPRPRPKPEPRP", "shrunken log2 fold change": 0.223}
{"sequence": "RRIRFRPPRLPRPRPRPVATPRP", "shrunken log2 fold change": 0.547}
{"sequence": "RRIRWRPPRLPRPRPRPKREPRP", "shrunken log2 fold change": 0.0441}
{"sequence": "RRIRQRPPRLPRPRPRPNHGPRP", "shrunken log2 fold change": -0.00507}
{"sequence": "RRIRARPPRLPRPRPRPPWHPRP", "shrunken log2 fold change": 0.342}
{"sequence": "RRIRHRPPRLPRPRPRPPRAPRP", "shrunken log2 fold change": 0.667}
{"sequence": "RRIRERPPRLPRPRPRPEPSPRP", "shrunken log2 fold change": 0.0429}
{"sequence": "RRIRMRPPRLPRPRPRPVRHPRP", "shrunken log2 fold change": 0.237}
{"sequence": "RRIRKRPPRLPRPRPRPGQSPRP", "shrunken log2 fold change": 0.306}
{"sequence": "RRIRKRPPRLPRPRPRPCPFPRP", "shrunken log2 fold change": -0.223}
{"sequence": "RRIRNRPPRLPRPRPRPNHSPRP", "shrunken log2 fold change": -0.525}
{"sequence": "RRIRGRPPRLPRPRPRPFCDPRP", "shrunken log2 fold change": 0.456}
{"sequence": "RRIRDRPPRLPRPRPRPMSSPRP", "shrunken log2 fold change": 0.0508}
